Source: patent US20180021429A1, “ANTICANCER AGENTS OR ANTIMETASTATIC AGENTS USING FSTL1 AND COMBINATION DRUG THEREOF” (PHARMA FOODS INTERNATIONAL CO., LTD., priority 2015, published 2018)

T1: FSTL1 (Homo sapiens, UniProt Q12841)
T1 sequence (Q12841 21-308): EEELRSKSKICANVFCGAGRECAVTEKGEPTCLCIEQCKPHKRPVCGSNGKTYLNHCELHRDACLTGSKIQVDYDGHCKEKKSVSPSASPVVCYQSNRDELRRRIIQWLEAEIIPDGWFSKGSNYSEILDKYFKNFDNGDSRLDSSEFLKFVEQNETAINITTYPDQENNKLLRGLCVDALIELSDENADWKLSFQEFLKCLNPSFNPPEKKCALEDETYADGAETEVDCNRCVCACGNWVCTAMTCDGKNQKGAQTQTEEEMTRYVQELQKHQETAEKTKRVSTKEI


Experiments:
[1] = test system: GFP-positive and Snail-positive B16-F10 tumor cells; test: In vivo, intraperitoneal administration, Snail-positive B16-F10 bone metastasis model (Example 18); set-up: species or system mouse; settings: intraperitoneal 10 mg/kg on days 5 and 10; day 14
Description: 1. Experiment Group (n=5) • 1. No treatment (0.9% NaCl as a sham) • 2. Control IgG (anti-DNP) • 3. Anti-FSTL1 Clone #6-55 • 4. Anti-FSTL1 Clone #7-34 • 5. Anti-FSTL1 Clone #8-1 […]
• Effects on the growth of subcutaneous tumor (calculation of tumor volume by tumor size measurement): measured 7, 11, and 14 days after tumor implantation (FIG. 42B) • Effects on bone metastasis (GFP-positive tumor cells in bone marrow or the spleen) (FIGS. 42A and 42C) • Effects on MSC expansion (CD45-negative cells in bone marrow or the spleen) (FIGS. 42A and 42C) • Effects on weight loss (FIG. 42A) • Effects on the expansion of immunosuppressive Treg cells (CD4-positive and Foxp3-positive cells in the spleen) (FIG. 42C) • Other immunosuppressive properties (FIG. 42C)
In Example 17, the antibody was administered into tumor according to the purpose of “inhibiting metastasis from a primary focus to bone” as previously conducted by the present inventors. […] Specifically, antitumor effects and immunosuppression-mitigating effects were comparatively analyzed by the intraperitoneal administration (systemic administration) of the anti-FSTL1 antibody using bone metastasis models in which mouse melanoma cells (B16-F10) forced to express Snail were subcutaneously and intravenously transplanted in C57BL/6N mice. […]

[2] = test system: GFP+F10-snail+ tumor cells; test: In vivo drug efficacy of each anti-FSTL1 antibody clone, GFP+F10-snail+ tumor model (Example 32); set-up: species or system mouse; settings: intraperitoneal 10 mg/kg on days 4 and 7; for mouse survival period (life-prolonging effect): FIG. 121
Protocol: (§1) • Day 0: transplantation of GFP+F10-snail+ tumor cells (3×10^5 cells subcutaneously & 2×10^4 cells intravenously) • Day 4: intraperitoneal administration of the antibody (first dose, 10 mg/kg) • Day 7: intraperitoneal administration of the antibody (second dose, 10 mg/kg)
(§2) Subcutaneous tumor was measured 4, 7, 10, 14, 17, 20, and 23 days after tumor cell transplantation.

[3] = test system: GFP+F10-snail+ tumor cells; test: as above; set-up: species or system mouse; settings: intraperitoneal 10 mg/kg on days 4 and 7; vs control antibody
Protocol: as §1, §2
Experiment Group (n=5) Control IgG (anti-DNP mAb) • #6-55 • #7 • #10 • #13 • #33
• Day 0: transplantation of GFP+F10-snail+ tumor cells (3×10^5, cells subcutaneously & 2×10^4 cells intravenously) • Day 4: intraperitoneal administration of the antibody (first dose, 10 mg/kg) • Day 7: intraperitoneal administration of the antibody (second dose, 10 mg/kg)

[4] = target: T1, FSTL1; test: MSC induction inhibition test using mouse bone marrow cells stimulated with FSTL1 (Example 27); format: cell-based; set-up: purchased R&D Systems, Inc. 1694-FN-050; settings: FSTL1 20 ng/mL, antibody 10 μg/mL, 8 days
Protocol: (§3) In this Example, the inhibitory activity of the anti-FSTL1 antibody was confirmed in an experimental system of mesenchymal stem cell induction while a FSTL1 inhibitory effect on MSC expansion induced not only by FSTL1 but by Snail+ tumor cells was also evaluated. For specific operation, each antibody (10 μg/mL) was added to systems in which C57/BL/6 mouse-derived bone marrow cells were stimulated with FSTL1 (20 ng/mL) or a culture supernatant of tumor cells. After culture for 8 days under stimulation, cell fraction CD45(−) cells (MSCs) containing MSCs at a high rate and CD45(−)CD146(+)ALCAM(+) cells (sMSCs) increasing in number in association with cancer metastasis were analyzed by flow cytometry in the same way as in Example 14, and the number of cells per culture system was counted. In this Example, mouse immunoglobulin manufactured by BioLegend, Inc. (4401408, Cone MG1-45) was used as a control antibody.
as §3, with “(#401408,” for “(4401408,”

Molecule | effect on weight loss (mouse body weight) [1] | mouse survival period (life-prolonging effect) [2] | suppressive activity against subcutaneous tumor growth ([2]; vs control antibody group, FIG. 120) | mouse survival period (life-prolonging effect) [3] | suppressive activity against subcutaneous tumor growth [3] | inhibitory effect in the MSC induction inhibition test (CD45(−) MSCs and sMSCs, flow cytometry) [4] | MSC induction inhibitory activity, reproducibility confirmed [4]
#8-1: chicken-mouse chimeric anti-FSTL1 antibody clone; variable regions SEQ ID NO: 791 (light), 793 (heavy) (antibody, V domains shown, mouse constant regions) VH: AVTLDESGGGLQTPGGALSLVCKGSGFTFSSFNMFWVRQAPGKGLEWVAGIGKDGVPKYGAAVDGRATISKDNGQSTMRLQLNNLRAEDTGTYFCAKAAGGCSYDWCGIYAGDIDTWGHGTEVIVSS VL: ASTQPSSVSANPGEAVKITCSGGSGSYYGWYQQKSPGSAPVTVIYNNNQRPSDIPSRFSGSKSGSTATLTITGVQAEDEAVYFCGGYDSSSGHGGIFGAGTTLTVL | anti-weight loss effect | – | – | – | – | – | –
#6-55: chicken-mouse chimeric anti-FSTL1 antibody clone; variable regions SEQ ID NO: 783 (light), 785 (heavy) (antibody, V domains shown, mouse constant regions) VH: AVTLDESGGGLQTPGGALSLVCKGSGFTFTSVTMQWVRQAPGKGLEWVASVCSGSSTYYAPAVKGRATISRDNGQSTVRLQLSNLRPEDTGTYYCAKIAGRARWSCTSAAYNIDAWGHGTEVIVSS VL: ASTQPSSVSAIPGETVKITCSGGGNNYGWYQQRSPGSAPVTVIYYNDNRPSNIPSRFSGSTSGSTSTLTITGVQADDEAIYYCGSWDSNTDSGIFGAGTTLTVL | anti-weight loss effect | statistically significant life-prolonging effect | statistically significant suppressive activity | statistically significant life-prolonging effect | statistically significant suppressive activity | – | –
#13: chicken-mouse chimeric anti-FSTL1 antibody clone; variable regions SEQ ID NO: 815 (light), 817 (heavy) (antibody, V domains shown, mouse constant regions) VH: AVTLDESGGGLQTPGGGLSLVCKASGFTFSSVTMQWVRQAPGKGLEWVASICSGSSTYYGPAVKGRATISRDNGQNTVRLQLNNLRAEDTATYYCAKIVGRGRWSCTSAAYNIDAWGHGTEVIVSS VL: ASTQPSSVSANPGETVKITCSGGGNNYGWYQQKSPGSAPVTVIYNNNNRPSNIPSRFSGSKSGSTNTLTITGVQAEDEAVYYCGSYDSSSDSGIFGAGTTLTVL | – | – | – | – | – | strong inhibitory effect equivalent to or higher than that of #6-55 | –
#33: chicken-mouse chimeric anti-FSTL1 antibody clone; variable regions SEQ ID NO: 823 (light), 825 (heavy) (antibody, V domains shown, mouse constant regions) VH: AVTLDESGGGLQTPGGGLSLVCKASGFTFSSFNMNWVRQAPGKGLEYVAEISGTGSSTYYGSAVKGRATISRDNGQSTVRLQLNNLRAEDTATYFCARGDGAYSIDAWGHGTEVIVSS VL: ASTQPSSVSANPGETVEITCSGDSSYYGWFQQKSPGSAPVTVIYDNTNRPSDIPSRFSGSKSGSTATLTITGVRAEDEAVYYCGGYDSSTYDGIFGAGTTLTVL | – | therapeutic effects equal to or higher than those of #6-55 | – | therapeutic effects equal to or higher than those of #6-55 | – | strong inhibitory effect equivalent to or higher than that of #6-55 | high MSC induction inhibitory activity equivalent to or higher than that of #6-55
